Here are results for 2 molecules from publication PMC2169462 (The Journal of Cell Biology, 2001).

This assay has as its target His6-tagged human RanGTP Q69L (human, UniProt P62826 1-216, Q69L). Kind of assay: pull-down.

B1: recombinant Kap121p (natural protein)
chain: MSALPEEVNRTLLQIVQAFASPDNQIRSVAEKALSEEWITENNIEYLLTFLAEQAAFSQDTTVAALSAVLFRKLALKAPPSSKLMIMSKNITHIRKEVLAQIRSSLLKGFLSERADSIRHKLSDAIAECVQDDLPAWPELLQALIESLKSGNPNFRESSFRILTTVPYLITAVDINSILPIFQSGFTDASDNVKIAAVTAFVGYFKQLPKSEWSKLGILLPSLLNSLPRFLDDGKDDALASVFESLIELVELAPKLFKDMFDQIIQFTDMVIKNKDLEPPARTTALELLTVFSENAPQMCKSNQNYGQTLVMVTLIMMTEVSIDDDDAAEWIESDDTDDEEEVTYDHARQALDRVALKLGGEYLAAPLFQYLQQMITSTEWRERFAAMMALSSAAEGCADVLIGEIPKILDMVIPLINDPHPRVQYGCCNVLGQISTDFSPFIQRTAHDRILPALISKLTSECTSRVQTHAAAALVNFSEFASKDILEPYLDSLLTNLLVLLQSNKLYVQEQALTTIAFIAEAAKNKFIKYYDTLMPLLLNVLKVNNKDNSVLKGKCMECATLIGFAVGKEKFHEHSQELISILVALQNSDIDEDDALRSYLEQSWSRICRILGDDFVPLLPIVIPPLLITAKATQDVGLIEEEEAANFQQYPDWDVVQVQGKHIAIHTSVLDDKVSAMELLQSYATLLRGQFAVYVKEVMEEIALPSLDFYLHDGVRAAGATLIPILLSCLLAATGTQNEELVLLWHKASSKLIGGLMSEPMPEITQVYHNSLVNGIKVMGDNCLSEDQLAAFTKGVSANLTDTYERMQDRHGDGDEYNENIDEEEDFTDEDLLDEINKSIAAVLKTTNGHYLKNLENIWPMINTFLLDNEPILVIFALVVIGDLIQYGGEQTASMKNAFIPKVTECLISPDARIRQAASYIIGVCAQYAPSTYADVCIPTLDTLVQIVDFPGSKLEENRSSTENASAAIAKILYAYNSNIPNVDTYTANWFKTLPTITDKEAASFNYQFLSQLIENNSPIVCAQSNISAVVDSVIQALNERSLTEREGQTVISSVKKLLGFLPSSDAMAIFNRYPADIMEKVHKWFA
For the molecule B1, the binding result is “binds”.

B2: recombinant Kap95p (natural protein)
chain: MSTAEFAQLLENSILSPDQNIRLTSETQLKKLSNDNFLQFAGLSSQVLIDENTKLEGRILAALTLKNELVSKDSVKTQQFAQRWITQVSPEAKNQIKTNALTALVSIEPRIANAAAQLIAAIADIELPHGAWPELMKIMVDNTGAEQPENVKRASLLALGYMCESADPQSQALVSSSNNILIAIVQGAQSTETSKAVRLAALNALADSLIFIKNNMEREGERNYLMQVVCEATQAEDIEVQAAAFGCLCKIMSLYYTFMKPYMEQALYALTIATMKSPNDKVASMTVEFWSTICEEEIDIAYELAQFPQSPLQSYNFALSSIKDVVPNLLNLLTRQNEDPEDDDWNVSMSAGACLQLFAQNCGNHILEPVLEFVEQNITADNWRNREAAVMAFGSIMDGPDKVQRTYYVHQALPSILNLMNDQSLQVKETTAWCIGRIADSVAESIDPQQHLPGVVQACLIGLQDHPKVATNCSWTIINLVEQLAEATPSPIYNFYPALVDGLIGAANRIDNEFNARASAFSALTTMVEYATDTVAETSASISTFVMDKLGQTMSVDENQLTLEDAQSLQELQSNILTVLAAVIRKSPSSVEPVADMLMGLFFRLLEKKDSAFIEDDVFYAISALAASLGKGFEKYLETFSPYLLKALNQVDSPVSITAVGFIADISNSLEEDFRRYSDAMMNVLAQMISNPNARRELKPAVLSVFGDIASNIGADFIPYLNDIMALCVAAQNTKPENGTLEALDYQIKVLEAVLDAYVGIVAGLHDKPEALFPYVGTIFQFIAQVAEDPQLYSEDATSRAAVGLIGDIAAMFPDGSIKQFYGQDWVIDYIKRTRSGQLFSQATKDTARWAREQQKRQLSL
B2: the binding result is given as “binds”.
